Reference: the supplement of paper PMC5949888

Tested on: Saccharomyces cerevisiae PS128 hsf1 delta, HSF1(1-493) fusion
Assay: growth estimate (transactivation domain function in HSF1 fusion, heat-shock survival) (a.u. (slope of normalised read count over time)); higher = stronger growth at 37°C, i.e. more transactivation activity
Details: library: design library
Summary of the method: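 Transactivation-domain oligos were designed and fused to a truncated yeast HSF1 (amino acids 1–493), then expressed in a yeast strain lacking hsf1. Replica plating onto –trp 5-FOA plates was followed by incubation at 30°C or 37°C for 0, 2, 4, 6 and 8 days. Inserts were amplified by PCR and sequenced on an Illumina MiSeq as six barcoded replicates from a single experiment. The growth estimate is the slope of a robust linear fit over time of read counts normalised to sample totals and to starting count.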

Sequence | growth estimate
LFDYDFLFGGDFA | 5.98
LFDYDFLFGKDFA | 2.49
LFDYDFLFGNAFA | 0.211
LFDYDFLFGNDAA | 2.84
LFDYDFLFGNDFA | 6.94
LFDYDFLFGNDFG | 0.038
LFDYDFLFGNDFK | 2.23
LFDYDFLFGNDFP | 15.5
LFDYDFLFGNDFR | 3.17
LFDYDFLFGNDGA | 0.693
LFDYDFLFGNDKA | 0.271
LFDYDFLFGNDPA | 0.915
LFDYDFLFGNDRA | 0.389
LFDYDFLFGNGFA | 1.45
LFDYDFLFGNKFA | -0.246
LFDYDFLFGNPFA | -0.0703
LFDYDFLFGNRFA | -0.205
LFDYDFLFGPDFA | 10.1
LFDYDFLFGRDFA | 3.41
LFDYDFLFKNDFA | 2.06
LFDYDFLFPNDFA | 4.58
LFDYDFLKGNDFA | -0.139
LFDYDFLPGNDFA | -0.232
LFDYDFLRGNDFA | -0.143
LFDYDFPFGNDFA | 0.577

Sequence | growth estimate
LFDYDFRFGNDFA | -0.0564
LFDYDGLFGNDFA | 0.114
LFDYDKLFGNDFA | -0.159
LFDYDPLFGNDFA | 0.326
LFDYDRLFGNDFA | -0.0061
LFDYGFLFGNDFA | 1.29
LFDYKFLFGNDFA | 0.0164
LFDYPFLFGNDFA | 1.53
LFDYRFLFGNDFA | -0.216
LFGYDFLFGNDFA | 1.68
LFPYDFLFGNDFA | 1.32
LFRYDFLFGNDFA | -0.0535
LGDYDFLFGNDFA | 2.6
LKDYDFLFGNDFA | -0.0701
LPDYDFLFGNDFA | 2.12
LRDYDFLFGNDFA | -0.135
MASSHGFSVDTSALLDLFSP | 0.0397
MGSSHGFSVDTSALLDLFSP | 0.215
MKSSHGFSVDTSALLDLFSP | -0.215
MLASHGFSVDTSALLDLFSP | -0.0319
MLGSHGFSVDTSALLDLFSP | 0.0043
MLKSHGFSVDTSALLDLFSP | -0.17
MLPSHGFSVDTSALLDLFSP | -0.0639
MLSAHGFSVDTSALLDLFSP | -0.231
MLSGHGFSVDTSALLDLFSP | -0.0767

Sequence | growth estimate
MLSKHGFSVDTSALLDLFSP | -0.229
MLSPHGFSVDTSALLDLFSP | 0.158
MLSSAGFSVDTSALLDLFSP | -0.0464
MLSSHAFSVDTSALLDLFSP | -0.157
MLSSHGASVDTSALLDLFSP | -0.0827
MLSSHGFAVDTSALLDLFSP | -0.142
MLSSHGFGVDTSALLDLFSP | -0.0322
MLSSHGFKVDTSALLDLFSP | < -0.25
MLSSHGFPVDTSALLDLFSP | -0.119
MLSSHGFRVDTSALLDLFSP | -0.241
MLSSHGFSADTSALLDLFSP | -0.026
MLSSHGFSGDTSALLDLFSP | -0.115
MLSSHGFSKDTSALLDLFSP | -0.239
MLSSHGFSPDTSALLDLFSP | 0.374
MLSSHGFSRDTSALLDLFSP | < -0.25
MLSSHGFSVATSALLDLFSP | -0.234
MLSSHGFSVDASALLDLFSP | 0.0915
MLSSHGFSVDGSALLDLFSP | -0.0946
MLSSHGFSVDKSALLDLFSP | -0.249
MLSSHGFSVDPSALLDLFSP | -0.0885
MLSSHGFSVDRSALLDLFSP | -0.204
MLSSHGFSVDTGALLDLFSP | -0.207
MLSSHGFSVDTKALLDLFSP | -0.145
MLSSHGFSVDTPALLDLFSP | -0.228
MLSSHGFSVDTSAALDLFSP | -0.124

Sequence | growth estimate
MLSSHGFSVDTSAGLDLFSP | -0.207
MLSSHGFSVDTSAKLDLFSP | -0.237
MLSSHGFSVDTSALADLFSP | -0.191
MLSSHGFSVDTSALGDLFSP | -0.213
MLSSHGFSVDTSALKDLFSP | < -0.25
MLSSHGFSVDTSALLALFSP | -0.21
MLSSHGFSVDTSALLDGFSP | -0.227
MLSSHGFSVDTSALLDKFSP | -0.227
MLSSHGFSVDTSALLDLASP | -0.145
MLSSHGFSVDTSALLDLFAP | -0.0921
MLSSHGFSVDTSALLDLFGP | -0.17
MLSSHGFSVDTSALLDLFKP | -0.179
MLSSHGFSVDTSALLDLFPP | -0.106
MLSSHGFSVDTSALLDLFRP | -0.22
MLSSHGFSVDTSALLDLFSA | -0.127
MLSSHGFSVDTSALLDLFSG | -0.181
MLSSHGFSVDTSALLDLFSK | -0.245
MLSSHGFSVDTSALLDLFSP | 0.0347
MLSSHGFSVDTSALLDLGSP | -0.228
MLSSHGFSVDTSALLDLKSP | -0.096
MLSSHGFSVDTSALLDLPSP | < -0.25
MLSSHGFSVDTSALLDLRSP | < -0.25
MLSSHGFSVDTSALLDPFSP | < -0.25
MLSSHGFSVDTSALLDRFSP | -0.229
MLSSHGFSVDTSALLGLFSP | -0.207

Sequence | growth estimate
MLSSHGFSVDTSALLKLFSP | -0.216
MLSSHGFSVDTSALLPLFSP | -0.158
MLSSHGFSVDTSALLRLFSP | -0.193
MLSSHGFSVDTSALPDLFSP | -0.23
MLSSHGFSVDTSALRDLFSP | -0.196
MLSSHGFSVDTSAPLDLFSP | -0.15
MLSSHGFSVDTSGLLDLFSP | 0.0909
MLSSHGFSVDTSKLLDLFSP | -0.143
MLSSHGFSVDTSPLLDLFSP | -0.191
MLSSHGFSVDTSRLLDLFSP | -0.171
MLSSHGFSVGTSALLDLFSP | -0.248
MLSSHGFSVKTSALLDLFSP | -0.0119
MLSSHGFSVPTSALLDLFSP | -0.204
MLSSHGGSVDTSALLDLFSP | -0.112
MLSSHGPSVDTSALLDLFSP | -0.216
MLSSHGRSVDTSALLDLFSP | -0.248
MLSSHPFSVDTSALLDLFSP | -0.195
MLSSHRFSVDTSALLDLFSP | -0.227
MLSSKGFSVDTSALLDLFSP | -0.115
MLSSPGFSVDTSALLDLFSP | 0.169
MPSSHGFSVDTSALLDLFSP | 0.171
MRSSHGFSVDTSALLDLFSP | -0.241
PADDIWEELLSEDL | 2.99
PAFPGIELQELQELQALLQQ | -0.0264
PAPDTQDDFLKWWRSEEAQ | 0.0134

Sequence | growth estimate
PDDDEFSLWDSML | 1.67
PDLYSILWSDVY | -0.202
PEAPGIELQELQELQALLQQ | < -0.25
PEFAGIELQELQELQALLQQ | -0.244
PEFGGIELQELQELQALLQQ | < -0.25
PEFKGIELQELQELQALLQQ | < -0.25
PEFPAIELQELQELQALLQQ | -0.181
PEFPGIALQELQELQALLQQ | -0.223
PEFPGIEAQELQELQALLQQ | -0.167
PEFPGIEGQELQELQALLQQ | < -0.25
PEFPGIEKQELQELQALLQQ | 0.269
PEFPGIELAELQELQALLQQ | -0.181
PEFPGIELKELQELQALLQQ | -0.217
PEFPGIELQALQELQALLQQ | 0.169
PEFPGIELQELAELQALLQQ | 0.131
PEFPGIELQELGELQALLQQ | -0.0807
PEFPGIELQELKELQALLQQ | < -0.25
PEFPGIELQELPELQALLQQ | -0.22
PEFPGIELQELQALQALLQQ | < -0.25
PEFPGIELQELQEKQALLQQ | < -0.25
PEFPGIELQELQELAALLQQ | 0.178
PEFPGIELQELQELGALLQQ | -0.221
PEFPGIELQELQELKALLQQ | -0.22
PEFPGIELQELQELPALLQQ | < -0.25
PEFPGIELQELQELQAALQQ | -0.23

Sequence | growth estimate
PEFPGIELQELQELQALKQQ | -0.232
PEFPGIELQELQELQALLAQ | < -0.25
PEFPGIELQELQELQALLGQ | -0.226
PEFPGIELQELQELQALLKQ | 0.0452
PEFPGIELQELQELQALLQA | -0.246
PEFPGIELQELQELQALLQG | -0.0522
PEFPGIELQELQELQALLQK | -0.125
PEFPGIELQELQELQALLQP | -0.215
PEFPGIELQELQELQALLQQ | -0.0979
PEFPGIELQELQELQALLRQ | -0.245
PEFPGIELQELQELQALPQQ | < -0.25
PEFPGIELQELQELQALRQQ | -0.168
PEFPGIELQELQELQAPLQQ | < -0.25
PEFPGIELQELQELQGLLQQ | < -0.25
PEFPGIELQELQELQKLLQQ | < -0.25
PEFPGIELQELQELQRLLQQ | -0.177
PEFPGIELQELQELRALLQQ | < -0.25
PEFPGIELQELQERQALLQQ | < -0.25
PEFPGIELQELQGLQALLQQ | < -0.25
PEFPGIELQELQRLQALLQQ | < -0.25
PEFPGIELQERQELQALLQQ | -0.248
PEFPGIELQPLQELQALLQQ | -0.243
PEFPGIELQRLQELQALLQQ | -0.107
PEFPGIELRELQELQALLQQ | 0.0112
PEFPGIEPQELQELQALLQQ | 0.114
